Data from patent publication US11135246B2, “Peptides and combination of peptides for use in immunotherapy against leukemias and other cancers” (Immatics Biotechnologies GmbH, priority 2017, dated 2021).

These substances were tested against HLA-B*07:02 (Homo sapiens, UniProt P01889) (assay: MHC binding assay, UV-ligand exchange with β2m ELISA, HLA-B*07:02). Details: binding to HLA-B*07:02, UV-ligand exchange.
From the text: Candidate peptides for T cell based therapies according to the present invention were further tested for their MHC binding capacity (affinity). The individual peptide-MHC complexes were produced by UV-ligand exchange, where a UV-sensitive peptide is cleaved upon UV-irradiation, and exchanged with the peptide of interest as analyzed. Only peptide candidates that can effectively bind and stabilize the peptide-receptive MHC molecules prevent dissociation of the MHC complexes. To determine the yield of the exchange reaction, an ELISA was performed based on the detection of the light chain (β2m) of stabilized MHC complexes. The assay was performed as generally described in Rodenko et al. (Rodenko et al., 2006).
96 well MAXISorp plates (NUNC) were coated over night with 2 ug/ml streptavidin in PBS at room temperature, washed 4× and blocked for 1 h at 37° C. in 2% BSA containing blocking buffer. Refolded HLA-A*02:01/MLA-001 monomers served as standards, covering the range of 15-500 ng/ml. Peptide-MHC monomers of the UV-exchange reaction were diluted 100-fold in blocking buffer. Samples were incubated for 1 h at 37° C., washed four times, incubated with 2 ug/ml HRP conjugated anti-β2m for 1 h at 37° C., washed again and detected with TMB solution that is stopped with […]. Absorption was measured at 450 nm. Candidate peptides that show a high exchange yield (preferably higher than 50%, most preferred higher than 75%) are generally preferred for a generation and production of antibodies or fragments thereof, and/or T cell receptors or fragments thereof, as they show sufficient avidity to the MHC molecules and prevent dissociation of the MHC complexes.

Row | Peptide exchange (MHC class I binding score, peptide exchange yield) | Substance
1 | “+++” (>50 = +++) | 78 (RPRGLALVL; listed as Homo sapiens) [compound 78]
2 | “+++” (>50 = +++) | 79 (SPVPSHWMVA; listed as Homo sapiens) [compound 79]
3 | “++” (>20% = ++) | 80 (KPLFKVSTF; listed as Homo sapiens) [compound 80]
4 | “+++” (>50 = +++) | 81 (SESPWLHAPSL; listed as Homo sapiens) [compound 81]
5 | “+++” (>50 = +++) | 82 (APFGFLGMQSL; listed as Homo sapiens) [compound 82]
6 | “+++” (>50 = +++) | 83 (IPVSRPIL; listed as Homo sapiens) [compound 83]
7 | “+++” (>50 = +++) | 84 (SPKLQIAAM; listed as Homo sapiens) [compound 84]
8 | “++” (>20% = ++) | 85 (IPVSHPVL; listed as Homo sapiens) [compound 85]
9 | “++” (>20% = ++) | 86 (IPASHPVL; listed as Homo sapiens) [compound 86]
10 | “+++” (>50 = +++) | 87 (FPAPILRAV; listed as Homo sapiens) [compound 87]
11 | “++” (>20% = ++) | 88 (MPDPHLYHQM; listed as Homo sapiens) [compound 88]
12 | “++” (>20% = ++) | 89 (FPETVNNLL; listed as Homo sapiens) [compound 89]
13 | “++” (>20% = ++) | 90 (KPKAAKPKA; listed as Homo sapiens) [compound 90]
14 | “++” (>20% = ++) | 91 (KPKAAKPKAA; listed as Homo sapiens) [compound 91]
15 | “++” (>20% = ++) | 92 (KAKKPAGAA; listed as Homo sapiens) [compound 92]
16 | “+++” (>50 = +++) | 93 (KARKSAGAA; listed as Homo sapiens) [compound 93]
17 | “++” (>20% = ++) | 94 (KPKAAKPKKAAA; listed as Homo sapiens) [compound 94]
18 | “++” (>20% = ++) | 95 (KPKAAKPKTA; listed as Homo sapiens) [compound 95]
19 | “+++” (>50 = +++) | 96 (KPKKAPKSPA; listed as Homo sapiens) [compound 96]
20 | “++” (>20% = ++) | 97 (LPFGKIPIL; listed as Homo sapiens) [compound 97]
21 | “+++” (>50 = +++) | 98 (YPIALTRAEM; listed as Homo sapiens) [compound 98]
22 | “++++” (>75% = ++++) | 99 (SPRAINNLVL; listed as Homo sapiens) [compound 99]
23 | “++” (>20% = ++) | 100 (YPYQERVFL; listed as Homo sapiens) [compound 100]
24 | “+++” (>50 = +++) | 101 (NPRYPNYMF; listed as Homo sapiens) [compound 101]
25 | “++” (>20% = ++) | 102 (LPLSMEAKI; listed as Homo sapiens) [compound 102]
26 | “++” (>20% = ++) | 103 (IPANTEKASF; listed as Homo sapiens) [compound 103]
27 | “+++” (>50 = +++) | 104 (RPMTPTQIGPSL; listed as Homo sapiens) [compound 104]
28 | “+++” (>50 = +++) | 105 (NPLTKLLAI; listed as Homo sapiens) [compound 105]
